Legend:
[1] = biological target: monomer-enriched preparation of the Aβ1-42 peptide (Example 16); assay: ELISA, fraction coated at 2.2 µM; assay 3; antibody dilution 1:128 (start 0.5 µg/ml)
[2] = biological target: oligomer-enriched preparation of the Aβ1-42 peptide (Example 16); assay: as above
[3] = biological target: monomer-enriched preparation of the Aβ1-42 peptide (Example 16); assay: ELISA, fraction coated at 2.2 µM; antibody dilution 1:2 (start 0.5 µg/ml)
[4] = biological target: oligomer-enriched preparation of the Aβ1-42 peptide (Example 16); assay: as above
[5] = biological target: monomer-enriched preparation of the Aβ1-42 peptide (Example 16); assay: ELISA, fraction coated at 2.2 µM; assay 2; antibody dilution 1:2 (start 0.5 µg/ml)
[6] = biological target: oligomer-enriched preparation of the Aβ1-42 peptide (Example 16); assay: as above
[7] = biological target: low molecular weight (LMW) monomeric preparation of the Aβ1-42 peptide (Example 15) (human); assay: ELISA, fraction coated at 2 µM; antibody 0.0313 µg/ml
Chain of low molecular weight (LMW) monomeric preparation of the Aβ1-42 peptide (Example 15) (human) (peptide, as listed by the source): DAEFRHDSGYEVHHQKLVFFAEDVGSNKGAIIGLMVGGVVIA

[8] = biological target: high molecular weight (HMW) proto-fibrillar (PF) oligomer enriched preparation of the Aβ1-42 peptide (Example 15) (human); assay: as above
Chain of high molecular weight (HMW) proto-fibrillar (PF) oligomer enriched preparation of the Aβ1-42 peptide (Example 15) (human) (peptide, as listed by the source): as above

[9] = biological target: monomer-enriched preparation of the Aβ1-42 peptide (Example 16); assay: ELISA, fraction coated at 2.2 µM; assay 1; antibody dilution 1:8 (start 0.5 µg/ml)
[10] = biological target: oligomer-enriched preparation of the Aβ1-42 peptide (Example 16); assay: as above

Chain of monomer-enriched preparation of the Aβ1-42 peptide (Example 16) (peptide, as listed by the source): as above
Chain of oligomer-enriched preparation of the Aβ1-42 peptide (Example 16) (peptide, as listed by the source): as above

Work on 6E10 control antibody yielded an O.D. (405 nm) [1] of 0.86 O.D, an O.D. (405 nm) [2] of 0.66 O.D and an O.D. (405 nm), mean of 3 assays [3] of 3.59 O.D. It also gave an O.D. (405 nm), mean of 3 assays [4] of 3.59 O.D, an O.D. (405 nm) [5] of 3.48 O.D and an O.D. (405 nm) [6] of 3.55 O.D. It also gave an O.D. (405 nm) [7] of 0.329 O.D, an O.D. (405 nm) [8] of 0.286 O.D and an O.D. (405 nm) [9] of 2.67 O.D. It also gave an O.D. (405 nm) [10] of 2.73 O.D.
